Measured values published in the PETadex activity labels (doi:10.1128/spectrum.00976-21).

Legend:
[1] = substrate: pNP-C2; test: Proxy for plastic degradation [Specific activity]
[2] = substrate: PET; PCL; test: Proxy for plastic degradation [Titratable acid release]; details: pH 7.5; 14 h

B1: unnamed (protein)
chain: MVRVFGLTLLALLVPALAAPVPEDLEARQSGCADVMVVYARGTDQDSPIGDPASVGVLFRDNIKSLLGSRTFSFQGVNYAANVIGFLQGGDPAGSRQMTTDLTNVANSCPNAKIVSAGYSQGGQLVHNSAAQLTAAVRNRINAVVIFGDPKSDQAVTGIPSSNVKIICHDGDNICEGGFIVTSQHTNYQQDAPAAAQFVLSKV
Proxy for plastic degradation ([1]; pH 2): 0 U/mg
Proxy for plastic degradation ([1]; pH 3): 0 U/mg
Proxy for plastic degradation ([1]; pH 4): 0 U/mg
Proxy for plastic degradation ([1]; pH 5): 14500 U/mg
Proxy for plastic degradation ([1]; pH 6): 27500 U/mg
Proxy for plastic degradation ([1]; pH 7): 29500 U/mg
Proxy for plastic degradation ([1]; pH 7.5, 0 h): 17500 U/mg
Proxy for plastic degradation ([1]; pH 7.5, 20 °C): 0 U/mg
Proxy for plastic degradation ([1]; pH 7.5, 30 °C): 22500 U/mg
Proxy for plastic degradation ([1]; pH 7.5, 40 °C): 32500 U/mg
Proxy for plastic degradation ([1]; pH 7.5, 50 °C): 20000 U/mg
Proxy for plastic degradation ([1]; pH 7.5, 60 °C): 300 U/mg
Proxy for plastic degradation ([1]; pH 7.5, 70 °C): 0 U/mg
Proxy for plastic degradation ([1]; pH 7.5, 80 °C): 0 U/mg
Proxy for plastic degradation ([1]; pH 7.5, 1 h): 19400 U/mg
Proxy for plastic degradation ([1]; pH 7.5, 2 h): 22500 U/mg
Proxy for plastic degradation ([1]; pH 7.5, 3 h): 35000 U/mg
Proxy for plastic degradation ([1]; pH 7.5, 4 h): 25000 U/mg
Proxy for plastic degradation ([1]; pH 7.5, 5 h): 18500 U/mg
Proxy for plastic degradation ([1]; pH 8): 32200 U/mg
Proxy for plastic degradation ([1]; pH 9): 10000 U/mg
Proxy for plastic degradation [2]: 10.9 mL
